The target of test [1] is E. coli MukB(G67C)-HaloTag (E. coli) (UniProt P22523). The test is described as follows: cross-linking; in vivo BMOE combinatorial cysteine cross-linking, cells grown to stationary phase; SDS-PAGE and in-gel fluorescence of MukB-HaloTag-TMR.
The target is the same in test [2]. Put plainly: cross-linking; in vivo BMOE cysteine cross-linking of E. coli cells in exponential phase, 10 min on ice in PBS; SDS-PAGE and in-gel fluorescence of MukB-HaloTag-TMR.
The target in test [3] is E. coli MukB(G67C, D1406A)-HaloTag (E. coli) (UniProt P22523). The description is as above.
In test [4] the target is E. coli MukB(G67C, E1407Q)-HaloTag (E. coli) (UniProt P22523). Described as above.
Test [5] deals with E. coli MukB(G67C, R771C)-HaloTag with natural C730 (E. coli) (UniProt P22523). The test is described as follows: cross-linking; in vivo BMOE combinatorial cysteine cross-linking, cells grown to stationary phase; SDS-PAGE and in-gel fluorescence of MukB-HaloTag-TMR.
The target in test [6] is E. coli MukB(R771C)-HaloTag with natural C730 (E. coli) (UniProt P22523). The description is as above.

MukB species cross-linked, cross-linked fraction and cross-linking efficiency data for five substances are collected here from article PMC8669397.

Take “E. coli MukB(G67C)-HaloTag (from UniProt P22523 1-1486) (natural protein)”: the MukB species cross-linked at the heads in test [1] was 29%. For the same substance, the cross-linked fraction in test [2] stood at 22%.
For the substance “E. coli MukB(G67C, D1406A)-HaloTag (from UniProt P22523 1-1486) (natural protein)”, the cross-linked fraction in test [3] was 21%.
The substance “E. coli MukB(G67C, E1407Q)-HaloTag (from UniProt P22523 1-1486) (natural protein)” came in with a cross-linked fraction in test [4] of 30%.
Turning to “E. coli MukB(G67C, R771C)-HaloTag with natural C730 (from UniProt P22523 1-1486) (natural protein)”, the MukB species cross-linked at the heads in test [5] was 12%.
In the case of “E. coli MukB(R771C)-HaloTag with natural C730 (from UniProt P22523 1-1486) (natural protein)”, in test [6], the cross-linking efficiency amounted to 62%.
